Experimental findings from article PMC9790621 are described below.

Substrate in data set [1]: Nc1nc2c(ncn2[C@@H]2O[C@H](COP(=O)(O)O)[C@@H](O)[C@H]2O)c(=O)[nH]1
Kind of data set: purified protein. Conditions: pH 7.8; 25.0 °C.

Substrate in data set [2]: NC(=O)C1=CN([C@@H]2O[C@H](COP(=O)(O)OP(=O)(O)OC[C@H]3O[C@@H](n4cnc5c(N)ncnc54)[C@H](OP(=O)(O)O)[C@@H]3O)[C@@H](O)[C@H]2O)C=CC1
The experiment in a line: purified protein. Conditions: pH 7.8; 25.0 °C.

B1: Mtb GMPR (Mtb GuaB1) (Mycobacterium tuberculosis H37Rv) (protein)
chain: MRFLDGHPPGYDLTYNDVFIVPNRSEVASRFDVDLSTADGSGTTIPVVVANMTAVAGRRMAETVARRGGIVILPQDLPIPAVKQTVAFVKSRDLVLDTPVTLAPDDSVSDAMALIHKRAHGVAVVILEGRPIGLVRESSCLGVDRFTRVRDIAVTDYVTAPAGTEPRKIFDLLEHAPVDVAVLTDADGTLAGVLSRTGAIRAGIYTPATDSAGRLRIGAAVGINGDVGAKARALAEAGVDVLVIDTAHGHQVKTLDAIKAVSALDLGLPLAAGNVVSAEGTRDLLKAGANVVKVGVGPGAMCTTRMMTGVGRPQFSAVLECASAARQLGGHIWADGGIRHPRDVALALAAGASNVMIGSWFAGTYESPGDLMRDRDDQPYKESYGMASKRAVVARTGADNPFDRARKALFEEGISTSRMGLDPDRGGVEDLIDHITSGVRSTCTYVGASNLAELHERAVVGVQSGAGFAEGHPLPAGW
B1: the K0.5 is 10.5 ± 1.17 µM in the data set “purified protein [1]” and 63 ± 7 µM in “purified protein [2]”.
